The target in assay [1] is T1, IL-23 (HEK293E-derived) (human, UniProt P29460 23-328; Q9NPF7 20-189).
T1 sequence 1: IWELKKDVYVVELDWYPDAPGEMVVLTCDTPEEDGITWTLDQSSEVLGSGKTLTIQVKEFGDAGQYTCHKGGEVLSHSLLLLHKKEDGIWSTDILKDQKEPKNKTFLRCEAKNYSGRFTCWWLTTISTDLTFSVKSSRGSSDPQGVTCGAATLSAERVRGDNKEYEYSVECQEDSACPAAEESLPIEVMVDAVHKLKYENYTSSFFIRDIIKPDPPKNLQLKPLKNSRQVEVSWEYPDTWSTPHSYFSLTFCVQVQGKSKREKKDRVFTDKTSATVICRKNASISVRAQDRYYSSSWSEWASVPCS
T1 sequence 2: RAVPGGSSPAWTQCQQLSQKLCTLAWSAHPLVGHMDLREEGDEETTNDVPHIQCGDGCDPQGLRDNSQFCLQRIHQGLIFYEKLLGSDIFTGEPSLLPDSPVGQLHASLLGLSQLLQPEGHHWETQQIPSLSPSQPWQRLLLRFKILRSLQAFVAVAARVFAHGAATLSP
Description: SPR (Biacore), antibody supernatant captured on Protein A, IL-23 at 5 ug/ml as analyte. On the procedure: As a result of the humanization processes 22 humanized antibodies were produced and tested for their ability to bind human IL-23 (Table 4). Briefly, 2 mL transfections of the 22 humanized antibodies were screened for antibody expression level and binding activity via SPR. Protein A was immobilized onto FC1 and FC2 (or alternatively FC3 and FC4) of a CM5 research grade sensor chip using amine coupling, giving approximately 3000 RU. FC1 was used as a blank throughout the experiments. The experiments were run in HBS-P buffer (SPR). Antibody-containing cell culture supernatants were diluted in 10× HBS-P buffer at a ratio of 9:1. The diluted antibody was injected over FC2 at a flow rate of 20 μl/min. IL-23 (HEK293E-derived) was passed over the surface of FC1 and FC2 at a concentrations of 5 μg/ml as a kinetic injection with 5 min dissociation time across both
FC. Regeneration of the surface was performed using 10 mM Glycine, pH 1.5. The sensorgram data from FC2 were subtracted from FC1 and a buffer only control. […] The Sequence IDs of the variable heavy and light chains for each antibody are given in the Table 4 along with kd (off-rates) of selected tested antibodies.

Assay [2] deals with T2, Human IL-23 (human, UniProt P29460 23-328; Q9NPF7 20-189).
T2 construct: Heterodimer of IL-12p40 covalently linked to IL-23p19, purchased (Ebiosciences or RnD Systems); also called hIL-23; rhIL23
T2 sequence 1: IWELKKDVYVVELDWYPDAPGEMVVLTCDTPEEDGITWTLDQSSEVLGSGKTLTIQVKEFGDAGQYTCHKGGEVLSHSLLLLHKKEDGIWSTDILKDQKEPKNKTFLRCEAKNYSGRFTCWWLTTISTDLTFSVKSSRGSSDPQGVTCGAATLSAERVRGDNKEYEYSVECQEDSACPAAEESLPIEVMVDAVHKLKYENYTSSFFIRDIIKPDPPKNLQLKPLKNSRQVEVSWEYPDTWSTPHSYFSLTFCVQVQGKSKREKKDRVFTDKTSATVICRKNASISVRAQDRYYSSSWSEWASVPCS
T2 sequence 2: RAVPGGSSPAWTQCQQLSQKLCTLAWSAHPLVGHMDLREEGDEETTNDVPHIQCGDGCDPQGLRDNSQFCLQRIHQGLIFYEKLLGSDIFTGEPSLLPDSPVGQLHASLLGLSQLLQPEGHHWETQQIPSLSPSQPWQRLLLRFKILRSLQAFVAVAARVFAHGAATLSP
Nature of the assay: SPR (Biacore 3000), antibody captured on Protein A, IL-23 as analyte, 1:1 Langmuir fit. On the procedure: (§1) Using a Biacore 3000, Protein A (Pierce) was immobilized on a CM5 chip using amine coupling chemistry to give 3000 Response Units (RU). Antibody was captured on the surface of the chip in flow cell 2 or 4 with a control surface in flow cell 1 or 3. Human IL-23 was then passed over both flow cells and the response units measured. The surface was then regenerated with 10 mM glycine pH 2.5. For a kinetic run this process was repeated with 5 dilutions of IL-23. Data was double referenced using an injection of running buffer before being fitted using a 1:1 Langmuir equation to determine ka, kd and KD.

Assay [3] addresses T3, IL-12p40Fc (human).
T3 construct: also called human p40-Fc; human IL-12p40-Fc fusion protein
Description: ELISA, coated human IL-12p40-Fc, biotinylated antibody, streptavidin-HRP, mOD at 450 nm [panel C].

Assay [4] has as its target T4, IL-23Fc (human, UniProt Q9NPF7 20-189).
T4 construct: Produced in HEK293E
Description: ELISA, coated human IL-23 (IL-23Fc), biotinylated antibody, streptavidin-HRP, mOD at 450 nm [panel A]. The procedure: A NuncMaxisorp 96-well plate was coated with human IL-23 diluted to […] in carbonate coating buffer and overnight incubation at 4° C. The plate was washed (three times in 1×PBS-Tween20 (0.05%)) then blocked for an hour with 1% BSA in PBS at room temperature. Biotinylated antibody was prepared starting from 10 μg/ml and serial half log dilutions were performed then 100 μl was added to the plate and incubated for an hour. The plate was washed and Streptavidin-HRP at 1:2000 dilution was added to all wells and further incubated for an hour. The plate was washed and subsequently developed using TMB (Sigma). The color development reaction was stopped by addition of an equal volume of 1M HCl. Absorbance of the resulting reaction was determined using a plate-based spectrophotometer.

For assay [5], the target named is T2, Human IL-23. Nature of the assay: SPR (Biacore 3000), antibody captured on Protein A, IL-23 as analyte, 1:1 Langmuir fit; below the limit of sensitivity. On the procedure: as §1
In assay [6] the target is T2, Human IL-23. Description: competition ELISA: biotinylated hIL-23 (100 ng/ml) pre-incubated with antibody, binding to coated hIL23R-HIS detected with streptavidin-HRP; blocked partner IL-23R.
Assay [7] deals with T5, IL-12p40 (human, UniProt P29460 23-328).
T5 construct: also called IL-12p40 subunit
T5 sequence: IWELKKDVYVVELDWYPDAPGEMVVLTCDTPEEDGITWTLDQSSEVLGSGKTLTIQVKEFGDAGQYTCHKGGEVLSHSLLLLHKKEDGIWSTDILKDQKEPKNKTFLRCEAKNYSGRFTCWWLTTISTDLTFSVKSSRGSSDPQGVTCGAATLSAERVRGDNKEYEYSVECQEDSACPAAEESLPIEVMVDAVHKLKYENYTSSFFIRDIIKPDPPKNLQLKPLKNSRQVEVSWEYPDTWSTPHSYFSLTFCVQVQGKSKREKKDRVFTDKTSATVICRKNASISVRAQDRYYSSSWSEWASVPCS
Nature of the assay: ELISA, coated antigen IL-12p40, mOD at 450 nm; blank = coating antigen omitted [panel 8-22].

Assay [8] addresses T6, IL-23p19 (human, UniProt Q9NPF7 20-189).
T6 construct: also called IL-23p19 subunit
T6 sequence: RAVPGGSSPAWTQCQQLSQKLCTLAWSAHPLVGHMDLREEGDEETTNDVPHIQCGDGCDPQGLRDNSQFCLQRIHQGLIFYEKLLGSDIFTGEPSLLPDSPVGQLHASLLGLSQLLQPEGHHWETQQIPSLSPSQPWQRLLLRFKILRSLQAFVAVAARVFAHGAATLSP
Description: ELISA, coated antigen IL-23p19, mOD at 450 nm; blank = coating antigen omitted [panel 8-22].

For assay [9], the target named is T5, IL-12p40. Description: ELISA, coated antigen IL-12p40, mOD at 450 nm; blank = coating antigen omitted [panel 20-4].
The target of assay [10] is T6, IL-23p19. Nature of the assay: ELISA, coated antigen IL-23p19, mOD at 450 nm; blank = coating antigen omitted [panel 20-4].
The target in assay [11] is T5, IL-12p40. Description: ELISA, coated antigen IL-12p40, mOD at 450 nm; blank = coating antigen omitted [panel 6-22].
Assay [12] addresses T6, IL-23p19. Description: ELISA, coated antigen IL-23p19, mOD at 450 nm; blank = coating antigen omitted [panel 6-22].

B1: E11E7Chimera (antibody, human IgG1, kappa, V domains shown)
VH: QVQLKESGPGLVQPSQTLSLTCTVSGFSLISYNVHWVRQPRGKGLEWMGVIWTGGSTDYNSVLKSRLSISRDTSKSQVFLKMHSLQTEDIGTYYCARDKYGLFPGYFDYWGQGVMVTVSS
VL: DIVMTQSPFSLAVSEGEMVTINCKPSQSLLSSGNRKNYLAWYQQKPGQSPKLLIYYASTRQSGVPDRFIGSGSGTDFTLTISDVQAEDLADYYCLQHFNYPWTFGGGTKLELKR
notes: Rat E11E7 variable regions on human constant regions; also called E11E7 chimeric antibody
As to B1, in [1], the koff was 5.98e-05 s⁻¹. In [2], this molecule yielded an on-rate (kon) of 542000 M⁻¹ s⁻¹. In addition, in assay [3], the binding result is listed as “no binding (tested: 10 ug/ml)”. Also, in [4], the “EC50 (read off the curve)” value was about 0.09 µg/mL. In assay [5], the Kd was under 0.1 nM and the koff was under 1e-05 s⁻¹. In addition, the “IC50 (read off the curve)” value in [6] is about 0.04 µg/mL.

B2: 8-22 (antibody, human IgG1, kappa, V domains shown)
VH: QVQLQESGPGLVKPSETLSLTCTVSGFSLISYNVHWIRQPPGKGLEWIGVIWTGGSTDYNPSLKSRVTISRDTSKNQFSLKLSSVTAADTAVYYCARDKYGLFPGYFDYWGQGTLVTVSS
VL: DIVMTQSPDSLAVSLGERATINCKPSQSLLSSGNRKNYLAWYQQKPGQPPKLLIYYASTRQSGVPDRFSGSGSGTDFTLTISSLQAEDVAVYYCLQHFNYPWTFGQGTKLEIKR
notes: Humanized form of E11E7; also called humanized antibody 8-22
On to B2, for which the koff in assay [1] came out at 0.000117 s⁻¹; in assay [2], 0.000197 s⁻¹. The molecule further registered a Kd in assay [2] of 0.421 nM. The on-rate constant (kon) in assay [2] is 468000 M⁻¹ s⁻¹. Moreover, the binding result in assay [7] and in assay [8] was “no binding (tested: 10 ug/mL)” throughout.

B3: 21-4 (antibody, human IgG1, kappa, V domains shown)
VH: EVQLQQWGAGLLKPSETLSLTCAVYGFSLISYNVHWIRQPPGKGLEWIGVIWTGGSTDYNSVLKSRVTISRDTSKNQFSLKLSSVTAADTAVYYCARDKYGLFPGYFDYWGQGTLVTVSS
VL: EIVLTQSPATLSLSPGERATLSCKPSQSLLSSGNRKNYLAWYQQKPGQAPRLLIYYASTRQSGIPDRFSGSGSGTDFTLTISRLEPEDFAVYYCLQHFNYPWTFGGGTKVEIKR
notes: Humanized form of E11E7; also called humanized antibody 21-4
In the case of B3, the koff in assay [1] was 0.000191 s⁻¹. In assay [2], this molecule displayed a Kd of 0.388 nM, a koff of 0.000202 s⁻¹ and a kon of 521000 M⁻¹ s⁻¹.

B4: 20-4 (antibody, human IgG1, kappa, V domains shown)
VH: EVQLQQWGAGLLKPSETLSLTCAVYGFSLISYNVHWIRQPPGKGLEWIGVIWTGGSTDYNSVLKSRVTISVDTSKNQFSLKLSSVTAADTAVYYCARDKYGLFPGYFDYWGQGTLVTVSS
VL: EIVLTQSPATLSLSPGERATLSCKPSQSLLSSGNRKNYLAWYQQKPGQAPRLLIYYASTRQSGIPDRFSGSGSGTDFTLTISRLEPEDFAVYYCLQHFNYPWTFGGGTKVEIKR
notes: Humanized form of E11E7; also called humanized antibody 20-4
Turning to B4, in [1], the koff worked out at 0.000231 s⁻¹. For the same molecule, in [2], the affinity, expressed as Kd, was 0.47 nM; the koff stood at 0.000202 s⁻¹; the kon is 429000 M⁻¹ s⁻¹. Also, in assay [9], the binding result is recorded as “no binding (tested: 10 ug/mL)”. In addition, in [10], the binding result is recorded as “no binding (tested: 10 ug/mL)”.

B5: 6-22 (antibody, human IgG1, kappa, V domains shown)
VH: QVQLQESGPGLVKPSETLSLTCTVSGFSISSYNVHWIRQPPGKGLEWIGVIWTGGSTDYNPSLKSRVTISRDTSKNQFSLKLSSVTAADTAVYYCARDKYGLFPGYFDYWGQGTLVTVSS
VL: DIVMTQSPDSLAVSLGERATINCKPSQSLLSSGNRKNYLAWYQQKPGQPPKLLIYYASTRQSGVPDRFSGSGSGTDFTLTISSLQAEDVAVYYCLQHFNYPWTFGQGTKLEIKR
notes: Humanized form of E11E7; also called humanized antibody 6-22
Take B5: the koff is 0.000241 s⁻¹ in assay [1] and 0.0004 s⁻¹ in assay [2]. Also, the Kd in [2] turned out to be 0.86 nM. The molecule also returned a kon in assay [2] of 465000 M⁻¹ s⁻¹. In addition, the binding result in [11] and in assay [12] was “no binding (tested: 10 ug/mL)” throughout.

B6: 1-4 (antibody, human IgG1, kappa, V domains shown)
VH: EVQLQQWGAGLLKPSETLSLTCAVYGGSFSSYNVHWIRQPPGKGLEWIGVIWTGGSTDYNSVLKSRVTISRDTSKNQFSLKLSSVTAADTAVYYCARDKYGLFPGYFDYWGQGTLVTVSS
VL: EIVLTQSPATLSLSPGERATLSCKPSQSLLSSGNRKNYLAWYQQKPGQAPRLLIYYASTRQSGIPDRFSGSGSGTDFTLTISRLEPEDFAVYYCLQHFNYPWTFGGGTKVEIKR
notes: Humanized form of E11E7; also called humanized antibody 1-4
Molecule B6 gave a koff in assay [1] of 0.000616 s⁻¹. In [2], this molecule displayed a dissociation constant Kd of 2.11 nM, a koff of 0.000733 s⁻¹ and a kon of 348000 M⁻¹ s⁻¹.

For the origin of these results see patent US20130115166A1 (CEPHALON AUSTRALIA, published 2013).
